Experiment [1] deals with FNIP1-D–His6 labelled with Texas Red Maleimide (UniProt Q8TF40). Put plainly: fluorescence polarisation; fluorescence anisotropy; 1 μM Texas Red-labelled FNIP1-D, Hsp90α titrated; 50 mM Tris pH 7.2, 150 mM NaCl, 1 mM TCEP, 4 mM MgCl2, with or without 1 mM ATP, ADP or AMPPNP; single-site binding equation.
The target in experiment [2] is Hsp90α–FLAG full-length (wild type) (human) (UniProt P07900).
Experiment [3] deals with T1, FLAG–FNIP1 (bacterially expressed and purified) (UniProt Q8TF40 1-1166).
T1 construct: FNIP1; bacterial expression from pRSET-A; also called recombinant FNIP1; source: bacterially expressed and purified (a small amount)
T1 sequence (looked up): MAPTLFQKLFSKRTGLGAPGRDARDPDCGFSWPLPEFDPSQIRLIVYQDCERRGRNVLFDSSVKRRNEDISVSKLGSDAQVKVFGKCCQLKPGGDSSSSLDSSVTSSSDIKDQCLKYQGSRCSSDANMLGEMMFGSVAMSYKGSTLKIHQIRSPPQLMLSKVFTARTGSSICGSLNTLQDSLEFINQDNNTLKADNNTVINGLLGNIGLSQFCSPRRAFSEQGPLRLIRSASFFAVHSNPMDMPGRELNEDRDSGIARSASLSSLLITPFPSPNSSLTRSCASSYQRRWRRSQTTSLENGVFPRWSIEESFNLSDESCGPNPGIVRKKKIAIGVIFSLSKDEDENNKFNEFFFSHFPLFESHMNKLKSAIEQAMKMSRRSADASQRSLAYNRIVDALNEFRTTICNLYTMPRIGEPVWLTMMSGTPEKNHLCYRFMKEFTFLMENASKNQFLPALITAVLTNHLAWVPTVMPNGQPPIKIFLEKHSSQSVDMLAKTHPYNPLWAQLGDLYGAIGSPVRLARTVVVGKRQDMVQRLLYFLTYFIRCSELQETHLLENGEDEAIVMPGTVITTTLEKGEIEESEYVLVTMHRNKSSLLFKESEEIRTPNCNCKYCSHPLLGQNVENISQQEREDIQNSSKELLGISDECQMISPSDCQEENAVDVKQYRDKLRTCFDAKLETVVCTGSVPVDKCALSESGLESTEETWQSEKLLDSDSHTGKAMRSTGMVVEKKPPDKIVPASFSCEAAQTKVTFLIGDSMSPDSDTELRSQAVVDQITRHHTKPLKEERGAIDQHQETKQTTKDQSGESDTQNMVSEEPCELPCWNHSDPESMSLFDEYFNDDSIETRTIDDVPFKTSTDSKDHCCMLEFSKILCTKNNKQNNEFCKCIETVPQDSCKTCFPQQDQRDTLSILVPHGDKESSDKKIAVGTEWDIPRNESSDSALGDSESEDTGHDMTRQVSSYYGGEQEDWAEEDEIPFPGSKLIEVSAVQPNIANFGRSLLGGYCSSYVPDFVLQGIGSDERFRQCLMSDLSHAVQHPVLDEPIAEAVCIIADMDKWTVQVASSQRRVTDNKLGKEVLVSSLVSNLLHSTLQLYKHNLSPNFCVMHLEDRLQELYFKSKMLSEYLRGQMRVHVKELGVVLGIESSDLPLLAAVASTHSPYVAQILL
The experiment in a line: pull-down; His6-tagged protein bound to Ni-NTA agarose, incubated with 10 ng pure FLAG–FNIP1; immunoblot. The settings on record: both partners purified.

The Kd is a measure of binding affinity in units of concentration. “Hsp90α–His6 (from UniProt P07900 1-732) (natural protein)” showed a Kd in experiment [1] of 1300 nM.

B1: HA–FNIP1 (natural protein)
chain: T1 sequence (looked up)
For the molecule B1, in experiment [2], the inhibition of the in vitro ATPase activity of isolated Hsp90α (PiPer Phosphate Assay; Hsp90α 291.5 nM) by 200 nM FNIP1 (189.8 nM in the results) turned out to be 50 fold.

B2: FLCN–His6 (natural protein, UniProt Q8NFG4 1-579, looked up)
chain: MNAIVALCHFCELHGPRTLFCTEVLHAPLPQGDGNEDSPGQGEQAEEEEGGIQMNSRMRAHSPAEGASVESSSPGPKKSDMCEGCRSLAAGHPGYISHDKETSIKYVSHQHPSHPQLFSIVRQACVRSLSCEVCPGREGPIFFGDEQHGFVFSHTFFIKDSLARGFQRWYSIITIMMDRIYLINSWPFLLGKVRGIIDELQGKALKVFEAEQFGCPQRAQRMNTAFTPFLHQRNGNAARSLTSLTSDDNLWACLHTSFAWLLKACGSRLTEKLLEGAPTEDTLVQMEKLADLEEESESWDNSEAEEEEKAPVLPESTEGRELTQGPAESSSLSGCGSWQPRKLPVFKSLRHMRQVLGAPSFRMLAWHVLMGNQVIWKSRDVDLVQSAFEVLRTMLPVGCVRIIPYSSQYEEAYRCNFLGLSPHVQIPPHVLSSEFAVIVEVHAAARSTLHPVGCEDDQSLSKYEFVVTSGSPVAADRVGPTILNKIEAALTNQNLSVDVVDQCLVCLKEEWMNKVKVLFKFTKVDSRPKEDTQKLLSILGASEEDNVKLLKFWMTGLSKTYKSHLMSTVRSPTASESRN
notes: folliculin (FLCN), bacterially expressed; The name puts His6 behind the protein; source: bacterially expressed and purified; not shown: His6, N-terminal, kept
Turning to B2, the binding result in experiment [3] is “binds”.

B3: HA–FNIP2 (natural protein)
chain: MAPTLLQKLFNKRGSSGSSAAASAQGRAPKEGPAFSWSCSEFDLNEIRLIVYQDCDRRGRQVLFDSKAVQKIEEVTAQKTEDVPIKISAKCCQGSSSVSSSSSSSISSHSSSGGSSHHAKEQLPKYQYTRPASDVNMLGEMMFGSVAMSYKGSTLKIHYIRSPPQLMISKVFSARMGSFCGSTNNLQDSFEYINQDPNLGKLNTNQNSLGPCRTGSNLAHSTPVDMPSRGQNEDRDSGIARSASLSSLLITPFPSPSSSTSSSSSYQRRWLRSQTTSLENGIIPRRSTDETFSLAEETCSSNPAMVRRKKIAISIIFSLCEKEEAQRNFQDFFFSHFPLFESHMNRLKSAIEKAMISCRKIAESSLRVQFYVSRLMEALGEFRGTIWNLYSVPRIAEPVWLTMMSGTLEKNQLCQRFLKEFTLLIEQINKNQFFAALLTAVLTYHLAWVPTVMPVDHPPIKAFSEKRTSQSVNMLAKTHPYNPLWAQLGDLYGAIGSPVRLTRTVVVGKQKDLVQRILYVLTYFLRCSELQENQLTWSGNHGEGDQVLNGSKIITALEKGEVEESEYVVITVRNEPALVPPILPPTAAERHNPWPTGFPECPEGTDSRDLGLKPDKEANRRPEQGSEACSAGCLGPASDASWKPQNAFCGDEKNKEAPQDGSSRLPSCEVLGAGMKMDQQAVCELLKVEMPTRLPDRSVAWPCPDRHLREKPSLEKVTFQIGSFASPESDFESRMKKMEERVKACGPSLEASEAADVAQDPQVSRSPFKPGFQENVCCPQNRLSEGDEGESDKGFAEDRGSRNDMAADIAGQLSHAADLGTASHGAGGTGGRRLEATRGLYVKAAEGPVLEPVAPRCVQRGPGLVAGANIPCGDDNKKANFRTEGDIPRNESSDSALGDSDDEACASAMLDLGHGGDRTGGSLEVELPLPRSQSISTQNVRNFGRSLLAGYCPTYMPDLVLHGTGSDEKLKQCLVADLVHTVHHPVLDEPIAEAVCIIADTDKWSVQVATSQRKVTDNMKLGQDVLVSSQVSSLLQSILQLYKLHLPADFCIMHLEDRLQEMYLKSKMLSEYLRGHTRVHVKELGVVLGIESNDLPLLTAIASTHSPYVAQILL
In turn, B3 returned an inhibition of the in vitro ATPase activity of isolated Hsp90α (PiPer Phosphate Assay; Hsp90α 291.5 nM) by 1.6 μM FNIP2 in experiment [2] of 8 fold.

The values above are taken from paper PMC4931344, “The FNIP co-chaperones decelerate the Hsp90 chaperone cycle and enhance drug binding” (Nature Communications, 2016).
